Results as given in the supplement of paper PMC9170038.

Test system: MS2 coat protein
Test: apparent KD of MS2 coat protein; higher = weaker reporter binding
Details: Eterna round: R107
Procedure, shortened: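 The designed RNA switches were transcribed on-chip from Illumina sequencing clusters. In 100 mM Tris-HCl pH 7.5, 80 mM KCl and 4 mM MgCl2, without or with constant ligand, they were titrated with SNAP-549-labelled MS2 coat protein from 0.7 or 1.5 nM to 3 µM in twofold steps. Apparent KD is the per-design median of normalised cluster binding-curve fits.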

[1] = input ligand: theophylline 20 uM
[2] = input ligand: theophylline 2 mM
[3] = input ligand: tryptophan 2.4 mM

Row | Sequence | apparent KD of MS2 coat protein (input ligand: arginine 13.2 mM) [nM] | apparent KD of MS2 coat protein [1] [nM] | apparent KD of MS2 coat protein [2] [nM] | apparent KD of MS2 coat protein (input ligand: none) [nM] | apparent KD of MS2 coat protein [3] [nM]
1 | UGCAUUAUACAUGGAUCACCCAUGUAGACACGAGGACCGGUACGGCCGCCACUCGGAAGAGGAAACAUGAGGAUCACCCAUGUGA [Try A SS t2] | 42.7 | 89.7 | 105 |  | 
2 | UGCUACAUGAGGAUCACCCAUGUGGGUGAUACCAGCAUUCGUUUAUGCCCUUGGCAGCGCAGCCGAACCAAUCAUUCGGCAGAAA [Artiusar] | 21 | 201 | 861 | 23 | 81
3 | UGGUACAUGGCGGCCGCCACUGGGUUGAAAACCUGAGGAUCACCCUGGUAAAACGCGAAAGCGACUAGGACCGGGUCAUGUACCU | 167 | 891 | 787 | 573 | 70.5
4 | UGGUCACUAGGAGAUACCAGCCGACAUGAGGAUCACCCAUGUAACCGGCGUCCUCCCUUAGGCCCUUGGCAGCUCGUAGUUGCUC [Vebice] | 11.9 | 22.5 |  |  | 12.6
5 | UGUACCAUGUCGGCCGCCACUCAUGAUAAACCUGAGGAUCACCCUGGUAGCGUCAAAGACGCUAUGAGGACCGGGACAUGGUACU [TryBS Zipper 2] | 29.7 | 35.2 | 33 | 24.4 | 20.5
6 | UGUACUAUGUGAAGGAGCGCCACAUGAGGAUCACCCAUGUAAACAUGAGGAUCACCCAUGUGGCAGGUAGGUCGCACAUAGUACU [ArgBS - Double MS2 - I don't expect this to work] | 49.7 | 203 | 227 | 108 | 78.7
7 | UGUAUGGACUGAAGGAGCGCCUCAAAAUAACUUGAGGAUCACCCAGGUAAGGCGAAAGCCGGGCAGGUAGGUCGCAGUCCAUACU [ArgBX 3] | 31.2 | 43.1 | 72.3 | 37 | 49.9
8 | UGUAUGUGAUCUGAUACCAGAGUGACGCGAAAGCGAAACCUGAGGAUCACCCUGGUAAAACUCCCUUGGCAGCAGAUCGCAUACU | 76 | 35.3 | 23.9 | 49.5 | 68.3
9 | UGUAUGUGAUCUGAUACCAGCCUCAUAGCUUGAGGAUCACCCAAGUGGAGCGGAAACGCUGGCCCUUGGCAGCAGAUCGCAUACU [TheoBS 1 #AlternativeMS2] | 252 | 199 | 13.5 | 471 | 516
10 | UGUAUGUGAUCUGAUACCAGUCCAACUGGUAAAAUCUGAGGAUCACCCAGGUAAAAUUGGGACCCUUGGCAGCAGAUCGCAUACU | 146 | 423 | 544 | 175 | 235
11 | UGUAUGUGAUCUGAUACCAGUCCCUUGGCAGCAACAUGAGGAUCACCCAUGUAGAUACCAGACCCUUGGCAGCAGAUCGCAUACU [#DoubleAptamer 1] | 8.55 | 9.15 |  |  | 8.2
12 | UGUAUGUGAUUUGAUACCAGACCAGCUGGUGGUACUUGAGGAUCACCCAGGUAGGUUUGGGUCCCUUGGCAGCAAAUCGCAUACU [SS Theo B #24 Ms12] | 293 | 731 | 408 | 512 | 1310
13 | UGUAUUGGAAACAGUACUAGUGAUCCGGUCCGAGGACCGGUACGGCCGCCACUCGAAAUUAAUAAACAUGAGGAUCACCCAUGUA [Ex Tryptophan A 11] | 15.7 | 19.7 | 20.2 |  | 
14 | UGUCGAAACUGAAGGAGCGAGAUGACAAACAUGAGGAUCACCCAUGUUAUGGGUUGUUAAUCUCAGGUAGGUCGCAGUGACAAAA [Same State Arginine B GF 16] | 88.2 | 86.8 | 150 | 106 | 103
15 | UGUGACAUGAGGAUCACCCAUGUAAGGGAAGGAGCGCCGAAUAAGGCAGGUAGGUCGCCCAAGAUAGAAGAAUAAUAAGAUUGUG [Arginine A Same State; Euphoria Solution] | 20.8 | 39.9 | 27.9 | 27.1 | 28.3
16 | UGUGUUGUCCGAAGGAGCGGGACCUAAUAGUGGUAACAUGAGGAUCACCCAUGUAUUUCGUCCCAGGUAGGUCGCGGACAGUGUA [ArgiB-ms2@36] | 19 | 32.2 | 25.1 | 20.7 | 21.7
17 | UUAACGAGCUGAAGGAGCGCUCUUCAUCAACAUGAGGAUCACCCAUGUACACAUAAUAGGGAGCAGGUAGGUCGCAGCGGGAUGG [#24 Same State - Arginine B] | 14.2 | 24.8 | 17.4 | 16.2 | 17.2
